Laboratory results published in FireProtDB (doi:10.1021/bi012084+).

Conditions: Geobacillus stearothermophilus; pH 7.5; Thermal; DSC; KH2PO4/KOH 100 mM; reversible: no; whole UniProt chain shown

B1: Glyceraldehyde-3-phosphate dehydrogenase wild type, P00362 (protein)
chain: MAVKVGINGFGRIGRNVFRAALKNPDIEVVAVNDLTDANTLAHLLKYDSVHGRLDAEVSVNGNNLVVNGKEIIVKAERDPENLAWGEIGVDIVVESTGRFTKREDAAKHLEAGAKKVIISAPAKNEDITIVMGVNQDKYDPKAHHVISNASCTTNCLAPFAKVLHEQFGIVRGMMTTVHSYTNDQRILDLPHKDLRRARAAAESIIPTTTGAAKAVALVLPELKGKLNGMAMRVPTPNVSVVDLVAELEKEVTVEEVNAALKAAAEGELKGILAYSEEPLVSRDYNGSTVSSTIDALSTMVIDGKMVKVVSWYDNETGYSHRVVDLAAYIASKGL
unfolding enthalpy (calorimetric): 408 kcal/mol
